In patent publication US20230242646A1 (JJP BIOLOGICS SP Z O O, published 2023):

How the values were obtained:
[1] = target: T1, membrane-bound full-length human CD89 on HEK293F cells (human, UniProt P24071 22-287); test: FACS HEK293F-huCD89, 10 ug/mL; competitor PE-MIP8a
T1 construct: 2 or transient transfectants; also called membrane human CD89; human FcaRI

[2] = target: T2, chimeric bovine EC1-Fcgamma2R/human EC2-CD89 on HEK293F cells (bovine/human chimera); test: FACS, transiently transfected HEK293F
T2 chain: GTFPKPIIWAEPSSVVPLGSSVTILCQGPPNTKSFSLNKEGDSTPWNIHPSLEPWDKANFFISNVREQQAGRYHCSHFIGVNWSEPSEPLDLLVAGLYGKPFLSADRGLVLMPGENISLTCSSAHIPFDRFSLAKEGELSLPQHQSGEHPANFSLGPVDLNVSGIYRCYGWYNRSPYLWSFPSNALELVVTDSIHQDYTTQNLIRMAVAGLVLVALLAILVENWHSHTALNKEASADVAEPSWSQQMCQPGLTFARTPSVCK

[3] = target: T3, membrane full-length bovine Fcgamma2R on HEK293F cells (bovine); test: FACS, transiently transfected HEK293F
T3 construct: also called bovine Fcy2R
T3 chain: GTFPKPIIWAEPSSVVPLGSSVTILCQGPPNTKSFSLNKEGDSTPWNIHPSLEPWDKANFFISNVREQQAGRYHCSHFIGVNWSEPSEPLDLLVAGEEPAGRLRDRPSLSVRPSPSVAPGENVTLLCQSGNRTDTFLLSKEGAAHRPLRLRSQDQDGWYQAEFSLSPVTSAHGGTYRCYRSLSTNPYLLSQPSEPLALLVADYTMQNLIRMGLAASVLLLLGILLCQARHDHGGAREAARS

[4] = target: T4, chimeric human EC1-CD89/bovine EC2-Fcgamma2R (bovine TM and IC) on HEK293F cells (human/bovine chimera); test: FACS, 10 µg/mL, transiently transfected HEK293F
T4 construct: also called human EC1-CD89 (version with bovine transmembrane-intracellular region)

[5] = target: T5, chimeric human EC1-CD89/bovine EC2-Fcgamma2R (human TM and IC) on HEK293F cells (human/bovine chimera); test: FACS, 10 µg/mL, transiently transfected HEK293F
T5 construct: also called human EC1-CD89 (version with human transmembrane-intracellular region)

B1: CD89/IgA blocking mouse anti-human CD89-specific antibody 10E7 (antibody, V domains shown)
VH: EVQLVESGGGLVQPGGSLKLSCAASGLTFSSYGMSWVRQTPDKRLELVATINGNGDITYYPDSVKGRFTISRDNAKNTLYLQMSSLKSEDTAMYYCARDYDYDYAMDYWGQGTSVTVSS
VL: DIQMTQSTSSLSASLGDSVTISCRASQDIINYLNWYQQKPDGTVKLLIYYTSRLHSGVPSRFSGSGSGTEYSLTVSNLEKEDIATYFCQQGKTLPYTFGGGTKLEIK
notes: biotinylated in the Octet assay; also called mouse 10E7
B1 was tested, and the “% blocking of PE-MIP8a binding” value [1] was under 25%, the binding result [2] was “no binding (tested: 10 µg/mL)” and the binding result [3] was “no binding (tested: 10 µg/mL)”. B1: binds [4]; binds [5].
